The Human Domainome abundance scans (Beltran et al. 2025)
± gives the uncertainty stated by the source.

B1: Transcription factor SOX-4, residues 60 to 127; numbered along this chain, Q06945 (parent)
chain: KRPMNAFMVWSQIERRKIMEQSPDMHNAEISKRLGKRWKLLKDSDKIPFIREAERLRLKHMADYPDYK

Variants of: B1
Test: abundance fitness (aPCA) (normalised: wild type 0, dead -1); higher = more abundant; growth selection in yeast, the domain comes from the species named
Conditions: Homo sapiens

Variant | abundance fitness
A62G | -0.017 ± 0.038
A62F | -0.22 ± 0.059
A62P | -0.157 ± 0.067
A62R | -0.033 ± 0.041
A62E | -0.078 ± 0.068
V9A | -0.473 ± 0.085
V9F | -0.482 ± 0.15
V9W | -0.694 ± 0.13
V9P | -0.617 ± 0.21
V9Q | -0.76 ± 0.16
V9N | -0.609 ± 0.21
R15E | -0.354 ± 0.079
R15S | -0.335 ± 0.039
R15Y | -0.375 ± 0.066
R15T | -0.345 ± 0.078
R15P | -0.686 ± 0.14
R15W | -0.502 ± 0.063
A6E | -0.656 ± 0.074
A6L | -0.843 ± 0.078
A6N | -0.943 ± 0.074
A6T | -0.797 ± 0.091

Variant | abundance fitness
A6Q | -0.617 ± 0.094
A6D | -0.607 ± 0.076
A6K | -0.791 ± 0.092
A6C | -0.692 ± 0.087
H60T | -0.05 ± 0.069
H60L | -0.186 ± 0.052
H60G | 0.04 ± 0.05
H60N | -0.076 ± 0.24
S22F | 0.106 ± 0.05
S22H | -0.01 ± 0.061
S22R | -0.211 ± 0.038
M4D | -0.28 ± 0.071
M4E | -0.202 ± 0.081
M4Q | -0.412 ± 0.11
M4H | -0.589 ± 0.14
M4G | -0.311 ± 0.063
M4Y | -0.236 ± 0.076
M4A | -0.227 ± 0.075
M61A | -0.061 ± 0.067
M61G | 0.022 ± 0.069
M61Y | -0.319 ± 0.25

Variant | abundance fitness
M61T | -0.025 ± 0.093
M61K | 0.003 ± 0.089
Y64W | -0.25 ± 0.077
Y64I | -0.109 ± 0.18
Y64R | 0.035 ± 0.068
Y64S | 0.063 ± 0.056
Y64P | -0.009 ± 0.061
I18A | -0.484 ± 0.21
I18V | -0.482 ± 0.086
I18S | -0.665 ± 0.13
I18T | -0.701 ± 0.22
R33L | 0.192 ± 0.059
R33A | 0.121 ± 0.078
R33C | 0.083 ± 0.082
R33Y | -0.218 ± 0.16
R33K | 0.048 ± 0.13
R33P | -0.922 ± 0.14
I13R | -0.401 ± 0.062
I13T | -0.235 ± 0.095
I13L | -0.127 ± 0.062
I13V | -0.186 ± 0.049

Variant | abundance fitness
E54A | -0.29 ± 0.062
E54P | -0.802 ± 0.11
E54W | -0.643 ± 0.09
E54C | -0.425 ± 0.049
E54V | -0.696 ± 0.055
K17W | -0.87 ± 0.13
K17I | -0.178 ± 0.14
K17H | -0.426 ± 0.14
K17S | -0.439 ± 0.075
K17Q | -0.092 ± 0.078
K17Y | -0.421 ± 0.095
G35E | 0.262 ± 0.057
G35C | 0.095 ± 0.045
G35P | -0.496 ± 0.13
G35T | 0.15 ± 0.049
G35S | 0.173 ± 0.035
G35L | 0.168 ± 0.041
G35Y | 0.119 ± 0.05
E20L | -0.284 ± 0.076
E20N | -0.478 ± 0.2
E20Q | -0.142 ± 0.33
